Drawing on article PMC11217422, “Proton-pumping photoreceptor controls expression of ABC transporter by regulating transcription factor through light” (Communications Biology, 2024), this text covers Kd for one molecule.

The experiment concerns the target T1, G. violaceus transcriptional regulator, with His tag (Gloeobacter violaceus PCC 7421).
T1 construct: GvTcR, helix-turn-helix type transcriptional regulator of Gloeobacter violaceus PCC 7421, NCBI WP_011141437.1; gene amplified from genomic DNA with the printed primers (forward from the start codon, reverse adds His6 before the stop codon); also called GvTcR; HTH transcription factor protein; source: E. coli UT5600, purified (Ni-NTA); also in cell lysate; also co-expressed with GR from one pKA001 …
Nature of the experiment: ITC; MicroCal ITC200, room temperature, sonication buffer (150 mM NaCl, 50 mM Tris-HCl, pH 7.0) with 0.02% DDM; which protein was titrated is not told. Conditions: both partners purified.

B1: GR R69A/K141A double mutant (natural protein)
chain: MLMTVFSSAPELALLGSTFAQVDPSNLSVSDSLTYGQFNLVYNAFSFAIAAMFASALFFFSAQALVGQAYRLALLVSAIVVSIAGYHYFRIFNSWDAAYVLENGVYSLTSEKFNDAYRYVDWLLTVPLLLVETVAVLTLPAAEARPLLIKLTVASVLMIATGYPGEISDDITTRIIWGTVSTIPFAYILYVLWVELSRSLVRQPAAVQTLVRNMRWLLLLSWGVYPIAYLLPMLGVSGTSAAVGVQVGYTIADVLAKPVFGLLVFAIALVKTKADQESSEPHAAIGAAANKSGGSLIS
modifications: retinal chromophore bound by a Schiff base (residue not given)
B1: the Kd is 6.2 ± 3.15 mM.
